Laboratory results as given in patent publication US20090036382A1, “TGF-Beta Modulators and Use Thereof” (Universita' Degli Studi Di Padova, priority 2006, published 2009).

Experiments:
pro TGF-β1 = assay: CAGA12-lux luciferase reporter in HEK293T cells co-transfected with pro TGF-β1 vector; assay type: cell-based, human; settings: for Effect on luciferase expression induced by pro TGF-β1: CAGA12-lux, co-transfection with pro TGF-β1 vector, FIG. 2B, 2C
From the text: • The construct for emilin 1 expression was engineered in pCS2 vector (Rupp R. A. et al., 1994, Genes Dev 8, 1311-1323) (for a physical map of the vector, see the site faculty.washington.edu/rtmoon/pcs2+.html) as described (Zanetti M. et al., 2004, Mol Cell Biol 24, 638-650); the vector used for proTGF-β expression in MEF and HEK293T cells is pCDNA3.1 (Invitrogen). Vectors containing the coding sequence for human pro TGF-β are described in Young and Murphy-Ullrich, 2004 (Young and Murphy-Ullrich, 2004, J Biol Chem 279, 38032-38039). The human pro TGF-β cDNA sequence is reported in the data bank (NP_000660; protein 000651). • The vector for Furin/SPC 1 expression is pCDNA3.1 (Invitrogen) • p15 and CAGA 12 promoter fragments are described in Jonk L. J. et al., 1998, J Biol Chem 273, 21145-21152 […]. • Constructs containing Flag sequences are described in Young G. D and Murphy-Ullrich J E, 2004, J Biol Chem 279, 38032-38039. • Constructs containing the Flag epitope (e.g. Flag-EMI-domain-GPI) were prepared as described in Chubet R G et al. Biotechniques 1996; 20(1):136-141 and detected by anti-Flag antibody (Kodak Inc.). • Constructs containing the GPI anchor were prepared as described in the Manual “Current Protocols in Cell Biology” Howard R. Petty Wayne State University, Detroit, Mich.; Juan S. Bonifacino, Mary Dasso, Joe B. Harford, Jennifer Lippincott-Schwartz, and Kenneth M. Yamada (eds.), Copyright C 2003 John Wiley & Sons, Inc. (GPI-anchor). In the construct Flag-EMI domain-GPI, the Flag sequence was inserted at the N-terminus after the signal peptide, while the GPI-anchor sequence was placed at the COOH-terminal end. • The construct emilin 1-KDEL was obtained by inserting the KDEL coding sequence described by Munro S., and Pelham, H. R., 1987, Cell 48, 899-907 upstream the emilin 1 STOP codon. • The construct containing the type II TGF-β receptor with HA epitope was described in Wrana J. L. et al., 1994, Nature 370, 341-347. • supplier of the drugs used: SP600125 (Calbiochem), SB431542 (Tocris). • Purified recombinant LAP and TGF-β1 proteins were purchased from (R&D Systems)
To verify how emilin or the EMI domain can contrast TGF-β1 activity independently from receptor binding, HEK293T cells were transfected with a construct coding luciferase placed under control of a TGF-β activated promoter: CAGA12-lux (Jonk et al., 1998) alone or in combination with a emilin1 expression vector (500 ng) as shown in FIG. 2B. After transfection, cells were treated (black bar) or not treated (white bar) with 5 ng/ml recombinant TGF-1 (lanes 1 and 2). Column bars from 3 to 6 report luciferase expression values in experiments with cells co-transfected with the expression vector for emilin1 (or EMI-domain or emilin1ΔEMI) alone (white bars) or in combination with the vector encoding pro TGF-β1 (black bars). Values show the mean±st. dev.
As further validation of the above observations, HEK293T cells were cotransfected with expression plasmids carrying the cDNAs shown in the summary scheme above the figure, along with CAGA12-lux and CMV-lacZ constructs, and luciferase expression levels were measured.

[1] = test system: TGF-β activated p15 promoter; assay: p15-lux luciferase reporter in MEF primary cultures from wild type and emilin1 -/- mice; assay type: cell-based, mouse; settings: FIG. 3A, 3B
From the text: MEF primary cultures were transfected with plasmid p15-lux (p15-luciferase) (Li et al., 1995) driving transcription of the luciferase marker gene under control of the p15^INK4B gene promoter. Since the p15 promoter is activated by TGF-β (i.e. p15 is a TGF-β target gene), the presence of the growth factor induces higher luciferase levels, which can be measured with a luminometer.

[2] = target: T1, pro TGF-β1 (human TGF-β1 precursor) (human, UniProt P01137 30-390); assay: co-immunoprecipitation with anti-Flag antibodies from HEK293T cell extracts, western blot with anti-LAP antibodies
T1 construct: Expressed from pCDNA3.1 in HEK293T cells; also called TGF-β precursor; Flag-proTGF-β1
T1 sequence (P01137 30-390): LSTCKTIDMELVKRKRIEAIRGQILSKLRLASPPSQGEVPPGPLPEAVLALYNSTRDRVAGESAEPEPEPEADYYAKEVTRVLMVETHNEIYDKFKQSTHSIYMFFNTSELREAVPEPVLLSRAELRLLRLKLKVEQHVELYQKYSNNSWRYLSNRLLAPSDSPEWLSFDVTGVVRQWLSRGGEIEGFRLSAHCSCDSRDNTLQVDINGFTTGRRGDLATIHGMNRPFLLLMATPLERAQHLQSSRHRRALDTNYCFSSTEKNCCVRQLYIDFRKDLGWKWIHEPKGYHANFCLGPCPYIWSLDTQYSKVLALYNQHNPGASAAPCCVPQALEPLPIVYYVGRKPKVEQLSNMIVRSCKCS
Description: To verify whether TGF-β or its precursor is the emilin target, HEK293T cells were transfected with a plasmid encoding pro TGF-β1 alone or with an expression plasmid for Flag-EMI domain-GPI. Cell extracts were prepared and subjected to the immunoprecipitation procedure with anti-Flag antibodies, as described in example 2. Immunoprecipitates were subjected to SDS-PAGE and Western blotting (WB) with anti-LAP antibodies.

| Molecule | Effect on luciferase expression induced by pro TGF-β1 (pro TGF-β1) | further results |
| --- | --- | --- |
| emilin 2: emilin family protein, GenBank NP-114437 | antagonize TGF-β activity at the of pro-TGF-β level | – |
| NC(=O)c1ccc(-c2nc(-c3ccc4c(c3)OCO4)c(-c3ccccn3)[nH]2)cc1 [SB431542] | – | p15-lux transcriptional response in normal versus emilin1 -/- MEF cells after drug treatment [1]: a similar response is measured in normal and mutant cells |
| emilin 1-KDEL: emilin 1 with KDEL sequence inserted upstream the STOP codon; retained intracellularly, not secreted (protein) ASYPPRGFSLYTGSSGALSPGGPQAQIAPRPASRHRNWCAYVVTRTVSCVLEDGVETYVKYQPCAWGQPQCPQSIMYRRFLRPRYRVAYKTVTDMEWRCCQGYGGDDCAESPAPALGPASSTPRPLARPARPNLSGSSAGSPLSGLGGEGPGESEKVQQLEEQVQSLTKELQGLRGVLQGLSGRLAEDVQRAVETAFNGRQQPADAAARPGVHETLNEIQHQLQLLDTRVSTHDQELGHLNNHHGGSSSSGGSRAPAPASAPPGPSEELLRQLEQRLQESCSVCLAGLDGFRRQQQEDRERLRAMEKLLASVEERQRHLAGLAVGRRPPQECCSPELGRRLAELERRLDVVAGSVTVLSGRRGTELGGAAGQGGHPPGYTSLASRLSRLEDRFNSTLGPSEEQEESWPGAPGGLSHWLPAARGRLEQLGGLLANVSGELGGRLDLLEEQVAGAMQACGQLCSGAPGEQDSQVSEILSALERRVLDSEGQLRLVGSGLHTVEAAGEARQATLEGLQEVVGRLQDRVDAQDETAAEFTLRLNLTAARLGQLEGLLQAHGDEGCGACGGVQEELGRLRDGVERCSCPLLPPRGPGAGPGVGGPSRGPLDGFSVFGGSSGSALQALQGELSEVILSFSSLNDSLNELQTTVEGQGADLADLGATKDRIISEINRLQQEATEHATESEERFRGLEEGQAQAGQCPSLEGRLGRLEGVCERLDTVAGGLQGLREGLSRHVAGLWAGLRETNTTSQMQAALLEKLVGGQAGLGRRLGALNSSLQLLEDRLHQLSLKDLTGPAGEAGPPGPPGLQGPPGPAGPPGSPGKDGQEGPIGPPGPQGEQGVEGAPAAPVPQVAFSAALSLPRSEPGTVPFDRVLLNDGGYYDPETGVFTAPLAGRYLLSAVLTGHRHEKVEAVLSRSNQGVARVDSGGYEPEGLENKPVAESQPSPGTLGVFSLILPLQAGDTVCVDLVMGQLAHSEEPLTIFSGALLYGDPELEHAKDEL | – | Luciferase expression stimulated by transfected pro TGF-β (pro TGF-β1; CAGA12-lux and CMV-lacZ, FIG. 6C): abolishes its inhibitory action on the effects of pro TGF-β |
| multimerin 2: emilin family protein produced by endothelial cells, GenBank NP—079032 (protein) QASSTSLSDLQSSRTPGVWKAEAEDTGKDPVGRNWCPYPMSKLVTLLALCKTEKFLIHSQQPCPQGAPDCQKVKVMYRMAHKPVYQVKQKVLTSLAWRCCPGYTGPNCEHHDSMAIPEPADPGDSHQEPQDGPVSFKPGHLAAVINEVEVQQEQQEHLLGDLQNDVHRVADSLPGLWKALPGNLTAAVMEANQTGHEFPDRSLEQVLLPHVDTFLQVHFSPIWRSFNQSLHSLTQAIRNLSLDVEANRQAISRVQDSAVARADFQELGAKFEAKVQENTQRVGQLRQDVEDRLHAQHFTLHRSISELQADVDTKLKRLHKAQEAPGTNGSLVLATPGAGARPEPDSLQARLGQLQRNLSELHMTTARREEELQYTLEDMRATLTRHVDEIKELYSESDETFDQISKVERQVEELQVNHTALRELRVILMEKSLIMEENKEEVERQLLELNLTLQHLQGGHADLIKYVKDCNCQKLYLDLDVIREGQRDATRALEETQVSLDERRQLDGSSLQALQNAVDAVSLAVDAHKAEGERARAATSRLRSQVQALDDEVGALKAAAAEARHEVRQLHSAFAALLEDALRHEAVLAALFGEEVLEEMSEQTPGPLPLSYEQIRVALQDAASGLQEQALGWDELAARVTALEQASEPPRPAEHLEPSHDAGREEAATTALAGLARELQSLSNDVKNVGRCCEAEAGAGAASLNASLHGLHNALFATQRSLEQHQRLFHSLFGNFQGLMEANVSLDLGKLQTMLSRKGKKQQKDLEAPRKRDKKEAEPLVDIRVTGPVPGALGAALWEAGSPVAFYASFSEGTAALQTVKFNTTYINIGSSYFPEHGYFRAPERGVYLFAVSVEFGPGPGTGQLVFGGHHRTPVCTTGQGSGSTATVFAMAELQKGERVWFELTQGSITKRSLSGTAFGGFLMFKT | antagonize TGF-β activity at the of pro-TGF-β level | – |
| emilin1ΔEMI: emilin protein lacking the EMI-domain, used as control (protein) ASYPPRGFSLYTGSSGALSPGGPQAQIAPRPASSPAPALGPASSTPRPLARPARPNLSGSSAGSPLSGLGGEGPGESEKVQQLEEQVQSLTKELQGLRGVLQGLSGRLAEDVQRAVETAFNGRQQPADAAARPGVHETLNEIQHQLQLLDTRVSTHDQELGHLNNHHGGSSSSGGSRAPAPASAPPGPSEELLRQLEQRLQESCSVCLAGLDGFRRQQQEDRERLRAMEKLLASVEERQRHLAGLAVGRRPPQECCSPELGRRLAELERRLDVVAGSVTVLSGRRGTELGGAAGQGGHPPGYTSLASRLSRLEDRFNSTLGPSEEQEESWPGAPGGLSHWLPAARGRLEQLGGLLANVSGELGGRLDLLEEQVAGAMQACGQLCSGAPGEQDSQVSEILSALERRVLDSEGQLRLVGSGLHTVEAAGEARQATLEGLQEVVGRLQDRVDAQDETAAEFTLRLNLTAARLGQLEGLLQAHGDEGCGACGGVQEELGRLRDGVERCSCPLLPPRGPGAGPGVGGPSRGPLDGFSVFGGSSGSALQALQGELSEVILSFSSLNDSLNELQTTVEGQGADLADLGATKDRIISEINRLQQEATEHATESEERFRGLEEGQAQAGQCPSLEGRLGRLEGVCERLDTVAGGLQGLREGLSRHVAGLWAGLRETNTTSQMQAALLEKLVGGQAGLGRRLGALNSSLQLLEDRLHQLSLKDLTGPAGEAGPPGPPGLQGPPGPAGPPGSPGKDGQEGPIGPPGPQGEQGVEGAPAAPVPQVAFSAALSLPRSEPGTVPFDRVLLNDGGYYDPETGVFTAPLAGRYLLSAVLTGHRHEKVEAVLSRSNQGVARVDSGGYEPEGLENKPVAESQPSPGTLGVFSLILPLQAGDTVCVDLVMGQLAHSEEPLTIFSGALLYGDPELEHA | showed no effect on pro TGF-β | – |
| Flag-EMI-domain-GPI (emilin-1 EMI domain tagged with the Flag epitope and bound to a GPI anchor) (other, not shown: small tags and cut ends; large carriers, GPI (glycosylphosphatidylinositol) anchor at the COOH-terminal end, Expressed in transfected HEK293T cells and tested in cell extracts; also called EMI-domain-GPI-anchor; GPI anchored EMI domain) RHRNWCAYVVTRTVSCVLEDGVETYVKYQPCAWGQPQCPQSIMYRRFLRPRYRVAYKTVTDMEWRCCQGYGGDDCAE | – | binding result [2]: binds |
